In assay [1] the target is T1, WW domains of WWP1 expressed as GST fusion proteins (Homo sapiens, UniProt Q9H0M0).
T1 construct: twelve individual novel WW domains of WWP1, WWP2, WWP3 and WWP4 which were expressed as GST fusion proteins; made in house
Briefly: ELISA based cross affinity mapping, WW domains of WWP1. Type of assay: binding. As to conditions: GST fusion protein. Here is the method:
(§1) The 16 day mouse embryo cDNA expression library was diluted 1:1000 in SM solution (100 mM NaCl, 8 mM MgSOv4, 50 mM Tris HCl pH 7.5, 0.01% gelatin). To a sterile test tube, 2 μl of diluted mouse embryo library, 100 μl of 10 mM CaCl2, 100 μl of 10 mM MgCl2 and 100 μl of BL21(DE3)pLysE bacterial cells (grown overnight) were added and incubated for 30 minutes at 37° C. The contents of the tube were mixed with 3 ml of 0.6% top agarose, containing […] chloramphenicol, and poured onto a 2xYT plate (90 mm diameter). For a large primary screen, 10–20 plates were prepared with 3×10^4 pfu per plate. After 6 hours incubation at 37° C., a nitrocellulose filter soaked in 10 mM isopropyl-β-D-thiogalactopyranoside (IPTG) was overlaid on each plate and incubated 3–6 hours at 37° C. Before the filters were removed from the plates, they were marked asymmetrically with India ink in a 18 gauge syringe needle. The plates were stored at 4° C. until ready for the secondary screen. The filters were washed with PBS (137 mM NaCl, 2.7 mM KCl, 4.3 mM Na2HPO4, 1.4 mM KH2PO4)-0.05% Triton X-100 three times at room temperature, 15 minutes each wash, and then placed in a plastic bag containing non-specific blocking solution (PBS-2% BSA) for one hour. In the meantime, 1 ml of 1 mM biotinylated peptide in PBS-0.1% Tween 20 was added to 20 ml of 1 mg/ml streptavidin-alkaline phosphatase (SA-AP) in PBS-0.1% Tween 20 and incubated at 4° C. for 30 minutes. […] Excess biotin-binding sites would then be blocked by addition of 500 pmol biotin. […] Ten μl of 0.1 mM biotin would then be added, and the solution incubated for an additional 15 min.
(§2) To determine the ligand preferences of the novel WW omain-containing clones described in Sections 6.1 and 6.1.1, as well as addressing the issue of whether peptides containing PPPPY (SEQ ID NO:3)-like motifs derived from a variety of proteins could also serve as recognition units and bind to these clones, a cross affinity mapping experiment was performed (FIGS. 15A–D). The peptides shown in FIGS. 15A–D were synthesized, biotinylated, complexed with streptavidin-alkaline phosphatase, and tested in an ELISA based assay for their ability to bind to the twelve individual novel WW domains of WWP1, WWP2, WWP3 and WWP4 which were expressed as GST fusion proteins. The ELISA based cross-affinity experiments were performed essentially as described by Sparks et al. (1996, Proc. Natl. Acad. Sci. 93:1540–1544) with the following modifications. Briefly, microtiter wells were coated with 1–5 μg of fusion protein in 100 mM NaHCO3, blocked with SuperBlock TBS (Pierce) and washed four times with PBS, 0.05% Tween 20. Specific peptide-streptavidin/alkaline phosphatase complexes were added as above and unbound complexes washed five times with PBS, 0.05% Tween 20. Following addition of PNP substrate (p-nitrophenyl phosphate, Kirkegard & Perry Labs), peptide binding was quantitated after 30 min. at O.D. 405 nm. Relative binding measurements from three independent determinations were assigned to a scale as follows: O.D. units 0–0.5=(−), 0.5–1.0=(+), 1.0–2.0=(++), 2.0–3.0=(+++), >3.0=(++++). Peptide binding to human Fyn and Lyn SH3 and SH2 domains was assessed by a filter binding assay (see Section 6.1 and Sparks et al., 1996, Proc. Natl. Acad. Sci 93:1540–1544). Peptide sequences used in cross-affinity experiments correspond to segments of the following genes: RasGap (Database accession # P20936), AP-2 (P05549), p53BP-2 (U09582), IL-6Rα (P22272), voltage-gated chloride channel CLCN5 (X91906), IL-2Rγ (D111086), RSV (D10652), HTLV-1 (D13784), β-dystroglycan (L19711), Formin (X53599), amiloride-sensitive epithelial Na^+ channel ENaCα (P37089), ENaCβ (X87159) and ENaCγ (X87160), muscarinic acetylcholine receptor M4 AChR (P08173), and c-Abl (P00522). Src and Crk SH3 binding peptide sequences were derived from a phage display random peptide library screen (Section 6.1 and Sparks et al., 1996, Proc. Natl. Acad. Sci. 93:1540–1544).
Background: In an ELISA, binding on a coated surface is turned into a signal by an enzyme label.

Assay [2] relates to WW domains of WWP4 expressed as GST fusion proteins. In words: ELISA based cross affinity mapping, WW domains of WWP4. Type of assay: binding, human. As to conditions: biotinylated peptide-streptavidin/alkaline phosphatase complex; GST fusion proteins; ELISA. The method, then:
as §1, §2

For assay [3], the target named is T2, WW domains of WWP2 expressed as GST fusion proteins (Homo sapiens, UniProt O00308).
T2 construct: twelve individual novel WW domains of WWP1, WWP2, WWP3 and WWP4 which were expressed as GST fusion proteins; made in house
Briefly: ELISA based cross affinity mapping, WW domains of WWP2. In kind it is binding. Here is the method: as §1, §2

Assay [4] deals with twelve individual novel WW domains of WWP1, WWP2, WWP3 and WWP4. In words: ELISA based cross affinity mapping, whole panel of novel WW domains. Type of assay: binding, human. The conditions noted are these: biotinylated peptide-streptavidin/alkaline phosphatase complex, GST fusion proteins. The method, then:
as §1, §2

Assay [5] deals with WW domains of WWP1 expressed as GST fusion proteins. Briefly: ELISA based cross affinity mapping, WW domains of WWP1. In kind it is binding, human. As to conditions: biotinylated peptide-streptavidin/alkaline phosphatase complex; GST fusion proteins; ELISA. The method, then: as §1, §2
The target of assay [6] is T3, WW domains of WWP4 expressed as GST fusion proteins (Homo sapiens, UniProt Q96PU5).
T3 construct: twelve individual novel WW domains of WWP1, WWP2, WWP3 and WWP4 which were expressed as GST fusion proteins; made in house
In words: ELISA based cross affinity mapping, WW domains of WWP4. Type of assay: binding. As to conditions: GST fusion protein. The method, then: as §1, §2

Assay [7] deals with WW domains of WWP2 expressed as GST fusion proteins. In words: ELISA based cross affinity mapping, WW domains of WWP2. Type of assay: binding, human. As to conditions: biotinylated peptide-streptavidin/alkaline phosphatase complex; GST fusion proteins; ELISA. Here is the method: as §1, §2
Assay [8] concerns the target T4, WWP3 WW domain expressed as GST fusion protein (Homo sapiens, UniProt Q96QZ7).
T4 construct: made in house
In words: ELISA based cross affinity mapping, WWP3 WW domain. In kind it is binding. The conditions noted are these: biotinylated peptide-streptavidin/alkaline phosphatase complex. Here is the method:
The 16 day mouse embryo cDNA expression library was diluted 1:1000 in SM solution (100 mM NaCl, 8 mM MgSOv4, 50 mM Tris HCl pH 7.5, 0.01% gelatin). To a sterile test tube, 2 μl of diluted mouse embryo library, 100 μl of 10 mM CaCl2, 100 μl of 10 mM MgCl2 and 100 μl of BL21(DE3)pLysE bacterial cells (grown overnight) were added and incubated for 30 minutes at 37° C. The contents of the tube were mixed with 3 ml of 0.6% top agarose, containing […] chloramphenicol, and poured onto a 2xYT plate (90 mm diameter). For a large primary screen, 10–20 plates were prepared with 3×10^4 pfu per plate. After 6 hours incubation at 37° C., a nitrocellulose filter soaked in 10 mM isopropyl-β-D-thiogalactopyranoside (IPTG) was overlaid on each plate and incubated 3–6 hours at 37° C. Before the filters were removed from the plates, they were marked asymmetrically with India ink in a 18 gauge syringe needle. The plates were stored at 4° C. until ready for the secondary screen. The filters were washed with PBS (137 mM NaCl, 2.7 mM KCl, 4.3 mM Na2HPO4, 1.4 mM KH2PO4)-0.05% Triton X-100 three times at room temperature, 15 minutes each wash, and then placed in a plastic bag containing non-specific blocking solution (PBS-2% BSA) for one hour. In the meantime, 1 ml of 1 mM biotinylated peptide in PBS-0.1% Tween 20 was added to 20 ml of 1 mg/ml streptavidin-alkaline phosphatase (SA-AP) in PBS-0.1% Tween 20 and incubated at 4° C. for 30 minutes. As an alternative method of forming multivalent complexes, 50 pmol biotinylated peptide could have been incubated with 2 μg SA-AP (for a biotin:biotin-binding site ratio of 1:1). Excess biotin-binding sites would then be blocked by addition of 500 pmol biotin. As a further alternative, 31.2 μl of 1 mg/ml SA-AP could have been incubated with 15 μl of 0.1 mM biotinylated peptide for 30 min at 4° C. Ten μl of 0.1 mM biotin would then be added, and the solution incubated for an additional 15 min.
as §2, with “Peptide sequences used in cross-affinity experiments correspond to segments of the following genes: RasGap (Database accession # P20936), AP-2 (P05549), p53BP-2 (U09582), IL-6Rα (P22272), voltage-gated chloride channel CLCN5 (X91906), IL-2Rγ (D111086), RSV (D10652), HTLV-1 (D13784), β-dystroglycan (L19711), Formin (X53599), amiloride-sensitive epithelial Na^+ channel ENaCα (P37089), ENaCβ (X87159) and ENaCγ (X87160), muscarinic acetylcholine receptor M4 AChR (P08173), and c-Abl (P00522). Src and Crk SH3 binding peptide sequences were derived from a phage display random peptide library screen (Section 6.1 and Sparks et al., 1996, Proc. Natl. Acad. Sci. 93:1540–1544).” left out

No end group written: not given here.

T4 sequence (Q96QZ7 300-337 limits assumed): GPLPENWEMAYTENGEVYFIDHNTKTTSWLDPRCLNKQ

In the case of “WBP-1-Pro2: alanine substitution variant of WBP-1 at the second proline residue of the PPPPY motif (SGSGPGTPAPPYTVGPGY)”, the “binding to individual WW domain WWP1.2” value in assay [1] is “did not abolish binding”. Besides, the “binding to WW domains of WWP4” value in assay [2] was “loss of binding activity”. Moreover, the “binding to individual WW domain WWP2.3” value in assay [3] (GST fusion protein) is recorded as “did not abolish binding”.

For “CLCN5: peptide from the voltage-gated renal chloride channel CLCN5 (X91906) (SPPLPPYTPP)”, in assay [1], the “binding to individual WW domain WWP1.4” value is reported as “appreciable binding”. Also, the “binding to the novel WW domains (WWP1, WWP2, WWP3, WWP4 panel)” value in assay [4] is “bound to WW domains from one or more of the four novel clones”. For the same substance, the “binding to individual WW domain WWP2.4” value in assay [3] (GST fusion protein) is recorded as “appreciable binding”.

For the substance “bWW059: biotinylated peptide corresponding to the wild-type PPPPY-like motif in the HECT domain of WWP4 (NRLDLPPYETFED; also: biotinylated, site not given here)”, in assay [5], the “binding to WW domains of WWP1” value is given as “bind to individual WW domains”. Besides, in assay [1], the “binding to individual WW domain WWP1.1” value is listed as “binds” and the “binding to individual WW domain WWP1.4” value was “binds”. Besides, in assay [6], the “binding to individual WW domain WWP4.1” value is “binds”, the “binding to individual WW domain WWP4.2” value is “binds” and the “binding to individual WW domain WWP4.3” value was “binds”. In addition, the “binding to WW domains of WWP4” value in assay [2] was “bind to individual WW domains”. For the same substance, in assay [3] (GST fusion protein), the “binding to individual WW domain WWP2.1” value is listed as “binds”, the “binding to individual WW domain WWP2.2” value is recorded as “binds” and the “binding to individual WW domain WWP2.4” value is “binds”. Further, the “O.D. after 30 minutes at 405 nm” value in assay [3] (individual WW domain WW2.4, GST fusion protein) came to 3.0. In assay [7], the “binding to WW domains of WWP2” value is given as “bind to individual WW domains”.

Regarding biotin - PGTPPPKYNTLRL [ENaCγ], the “binding to WW domains of WWP1” value in assay [5] was “positive interaction”. In assay [2], the “binding to WW domains of WWP4” value is recorded as “positive interaction”. Besides, the “binding to WWP3 WW domain” value in assay [8] is “positive interaction”. In assay [7], the “binding to WW domains of WWP2” value is “positive interaction”.

For the origin of these results see US7279548B2, “Identification and isolation of novel polypeptides having WW domains and methods of using same” (Cytogen Corporation, priority 1996, dated 2007).
